B1: HDV Ribozyme (parent)
chain: GGCCGGCAUGGUCCCAGCCUCCUCGCUGGCGCCGGCUGGGCAACAUUCCGAGGGGACCGUCCCCUCGGUAAUGGCGAAUGGGACCCA

The data set covers variants of B1. Description: self-cleavage, relative activity (ratio to wild type); higher = more cleavage; co-transcriptional.
Consider GGCCGGCAUGGUCCCAGCCUCCUCGCAGGCGCCGGCUGGGCAACAUUCCGAGGGGCCCGUCCCCUCGGUAAUGGCGAAUGGGACCCA, for which the self-cleavage is 0.914.
For GGCCGGCAUGGUCCCAGCCUCCUCGCAGGCGCCGGCUGGGCAACAUUCCGAGGGGUCCGUCCCCUCGGUAAUGGCGAAUGGGACCCA the value was 0.923; for GGCCGGCAUGGUCCCAGCCUCCUCGCAGGCGCCGGCUGGGCUACAUUCCGAGGGGACCGUCCCCUCGGUAAUGGCGAAUGGGACCCA, 0; for GGCCGGCAUGGUCCCAGCCUCCUCGCAGGCGCCGGCUGGGCCACAUUCCGAGGGGACCGUCCCCUCGGUAAUGGCGAAUGGGACCCA, 0.0831.
As for GGCCGGCAUGGUCCCAGCCUCCUCGUUGGCGCCGGCUGGGCAACAUUCCGAGGGGACCGUCCCCACGGUAAUGGCGAAUGGGACCCA, the figure is 0.769; as for GGCCGGCAUGGUCCCAGCCUCCUCGCAGGCGCCGGCUGGGCAACUUUCCGAGGGGACCGUCCCCUCGGUAAUGGCGAAUGGGACCCA, 0.458.
As for GGCCGGCAUGGUCCCAGCCUCCUCGCAGGCGCCGGCUGGGCAACGUUCCGAGGGGACCGUCCCCUCGGUAAUGGCGAAUGGGACCCA, the figure is 0.745.
With GGCCGGCAUGGUCCCAGCCUCCUCGUUGGCGCCGGCUGGGCAACAUUCCGAGGGGACCGUCCCCUCGGUAAUGGCGAAUGCGACCCA, the self-cleavage came out at 0.748.
For GGCCGGCAUGGUCCCAGCCUCCUCGCAGGCGCCGGCUGGGCAACAUUCCGAGGGGACCGUCCCCUCGGUAAUGGCGAAUGGGCCCCA the value was 0.739.
As for GGCCGGCAUGGUCCCAGCCUCCUCGUUGGCGCCGGCUGGGCAACAUACCGAGGGGACCGUCCCCUCGGUAAUGGCGAAUGGGACCCA, the figure is 1.16.
As for GGCCGGCAUGGUCCCAGCCUCCUCGUUGGCGCCGGCAGGGCAACAUUCCGAGGGGACCGUCCCCUCGGUAAUGGCGAAUGGGACCCA, the self-cleavage is 0.462.
In the case of GGCCGGCAUGGUCCCAGCCUCCUCGCAGGCGCCGGCUGGGCAACAUUCCGAGGGGACCGUCCCCUCGGUACUGGCGAAUGGGACCCA, the self-cleavage was 1.03.
As for GGCCGGCAUGGUCCCAGCCUCCUCGCAGGCGCCGGCUGGGCAACAUUCCGAGGGGACCGUCCCCUCGGUAGUGGCGAAUGGGACCCA, the figure is 1.07.
For GGCCGGCAUGGUCCCAGCCUCCUCGUUGGCGCCGGCUGGGCAACAUUCCGAGGGGACCGCCCCCUCGGUAAUGGCGAAUGGGACCCA the value was 0.95; for GGCCGGCAUGGUCCCAGCCUCCUCGUUGGCGCCGGCUGGGCAACAUUCCGAGGGGACCGUCCCCUCGGUAAUGGCGAAUGGAACCCA, 0.769; for GGCCGGCAUGGUCCCAGCCUCCUCGUUGGCGCCGGCUGGGCAACAUUCCGAGGGGACCGUCCCCUCGGUAAUGGCGAAUGGUACCCA, 0.769.
For GGCCGGCAUGGUCCCAGCCUCCUCGUUGGCGCCGGCUGGGCAACAUUCCGAGGGGACCGUCCCCUCGGUAAUGGCUAAUGGGACCCA the value was 0.963; for GGCCGGCAUGGUCCCAGCCUCCUCGCAGGCGCCGGCUGGGCAACAUUCCGAGGGGACCGUCCCCUCGGUAAUGGCGAUUGGGACCCA, 0.256.
Turning to GGCCGGCAUGGUCCCAGCCUCCUCGUUGGCGCCGGCUGGGCAACAUUCCGAGGGGACCGUCCCCUCGGUAAUGGCGAAUCGGACCCA, the self-cleavage was 0.554.
For GGCCGGCAUGGUCCCAGCCUCCUCGUUGGCGCCGGCUGGGCAACAUUCCGAGGGGACCGUCCCCUCGGUAAUGGCGAACGGGACCCA the value was 0.671; for GGCCGGCAUGGUCCCAGCCUCCUCGCAGGCGCCGGCUGGGCAACAUUCCGAGGGGACCGUCCCCUCGGUUAUGGCGAAUGGGACCCA, 0.985; for GGCCGGCAUGGUCCCAGCCUCCUCGCAGGCGCCGGCUGGGCAACAUUCCGUGGGGACCGUCCCCUCGGUAAUGGCGAAUGGGACCCA, 0.739.
As for GGCCGGCAUGGUCCCAGCCUCCUCGUUGGCGCCGGCUGGGCAACAUUCCGAGGGGACCGUCCCCUCGGCAAUGGCGAAUGGGACCCA, the figure is 1.12; as for GGCCGGCAUGGUCCCAGCCUCCUCGUUGGCGCCGGCUGGGCAACAUUCCGAGGGGACCGUCCCCUCGGAAAUGGCGAAUGGGACCCA, 1.11.
For GGCCGGCAUGGUCCCAGCCUCCUCGCAGGCGCCGGCUGGGCAACAUUCCGAGGGGACCGUCCCCUCGGUAAUGGCGAAUGGGACCCC the value was 0.88.
Regarding GGCCGGCAUGGUCCCAGCCUCCUCGCAGGAGCCGGCUGGGCAACAUUCCGAGGGGACCGUCCCCUCGGUAAUGGCGAAUGGGACCCA, the self-cleavage worked out at 0.525.
For the variant GGCCGGCAUGGUCCCAGCCUCCUCGCAGGUGCCGGCUGGGCAACAUUCCGAGGGGACCGUCCCCUCGGUAAUGGCGAAUGGGACCCA, the self-cleavage came to 0.677.
As for GGCCGGCAUGGUCCCAGCCUCCUCGUUGGCGCCGGCUGGGCAACAUUCCGAGGGGACCGUCCCCUCGGUAAAGGCGAAUGGGACCCA, the figure is 0.731.
On to GGCCGGCAUGGUCCCAGCCUCCUCGUUGGCGCCGGCUGGGCAACAUUCCGAGGGGACCGUCCCCUCGGUAACGGCGAAUGGGACCCA, for which the self-cleavage is 0.906.
As for GGCCGGCAUGGUCCCAGCCUCCUCGCAGGCGCCGGCUGGGCAACAUUCCGAGGGGACCGUCCCCUCGGUAAUGGCGUAUGGGACCCA, the figure is 0.332; as for GGCCGGCAUGGUCCCAGCCUCCUCGCAGGCGCCGGCUGGGCAACAUUCCGAGGGGACCGUCCCCUCGGUAAUGGCGCAUGGGACCCA, 0; as for GGCCGGCAUGGUCCCAGCCUCCUCGCAGGCGCCGGCUGGGCAGCAUUCCGAGGGGACCGUCCCCUCGGUAAUGGCGAAUGGGACCCA, 0.237.

For the origin of these results see the RNAGym collection of RNA variant scans (doi:10.7554/elife.80360).
